What all share (test): pull-down; 2 pmol Halo-Sld5 GINS fixed on 10 µL HaloLink Resin, blocked with casein and BSA; 2 pmol Pol ε with 2 mg/mL BSA in 400 µL 25 mM HEPES-KOH pH 7.6, 200 mM K-acetate, 2 mM Mg-acetate, 10% glycerol, 0.1% Tween 20, 0.01% NP-40, 30 °C for 30 min; blot for Dpb2 and Psf2, band intensity compared to Psf1
Experiment [1] addresses GINS complex with the Psf1-1 mutant subunit (R84G), Psf2, Psf3, Halotag-Sld5 (S. cerevisiae) (UniProt Q12488).
The target of experiment [2] is GINS complex with the Psf1-100 mutant subunit (V161A, F162A, I163A, D164A), Psf2, Psf3, Halotag-Sld5 (S. cerevisiae) (UniProt Q12488).
Experiment [3] has as its target T1, DNA polymerase epsilon (Pol ε) comprising Pol2, Dpb2, Dpb3 and Dpb4 subunits (S. cerevisiae, UniProt P21951 1-2222; P24482 1-689; P27344 1-201; Q04603 1-196).
T1 construct: Pol2, catalytic subunit of DNA polymerase epsilon, S. cerevisiae; Dpb2, noncatalytic subunit of DNA polymerase epsilon, S. cerevisiae; Dpb3, noncatalytic subunit of DNA polymerase epsilon, S. cerevisiae; Dpb4, noncatalytic subunit of DNA polymerase epsilon, S. cerevisiae; source: purified as described previously [40]; copies: + + +
The note with it: both partners purified.

T1 sequence (P21951 whole entry, chain 1 of 4): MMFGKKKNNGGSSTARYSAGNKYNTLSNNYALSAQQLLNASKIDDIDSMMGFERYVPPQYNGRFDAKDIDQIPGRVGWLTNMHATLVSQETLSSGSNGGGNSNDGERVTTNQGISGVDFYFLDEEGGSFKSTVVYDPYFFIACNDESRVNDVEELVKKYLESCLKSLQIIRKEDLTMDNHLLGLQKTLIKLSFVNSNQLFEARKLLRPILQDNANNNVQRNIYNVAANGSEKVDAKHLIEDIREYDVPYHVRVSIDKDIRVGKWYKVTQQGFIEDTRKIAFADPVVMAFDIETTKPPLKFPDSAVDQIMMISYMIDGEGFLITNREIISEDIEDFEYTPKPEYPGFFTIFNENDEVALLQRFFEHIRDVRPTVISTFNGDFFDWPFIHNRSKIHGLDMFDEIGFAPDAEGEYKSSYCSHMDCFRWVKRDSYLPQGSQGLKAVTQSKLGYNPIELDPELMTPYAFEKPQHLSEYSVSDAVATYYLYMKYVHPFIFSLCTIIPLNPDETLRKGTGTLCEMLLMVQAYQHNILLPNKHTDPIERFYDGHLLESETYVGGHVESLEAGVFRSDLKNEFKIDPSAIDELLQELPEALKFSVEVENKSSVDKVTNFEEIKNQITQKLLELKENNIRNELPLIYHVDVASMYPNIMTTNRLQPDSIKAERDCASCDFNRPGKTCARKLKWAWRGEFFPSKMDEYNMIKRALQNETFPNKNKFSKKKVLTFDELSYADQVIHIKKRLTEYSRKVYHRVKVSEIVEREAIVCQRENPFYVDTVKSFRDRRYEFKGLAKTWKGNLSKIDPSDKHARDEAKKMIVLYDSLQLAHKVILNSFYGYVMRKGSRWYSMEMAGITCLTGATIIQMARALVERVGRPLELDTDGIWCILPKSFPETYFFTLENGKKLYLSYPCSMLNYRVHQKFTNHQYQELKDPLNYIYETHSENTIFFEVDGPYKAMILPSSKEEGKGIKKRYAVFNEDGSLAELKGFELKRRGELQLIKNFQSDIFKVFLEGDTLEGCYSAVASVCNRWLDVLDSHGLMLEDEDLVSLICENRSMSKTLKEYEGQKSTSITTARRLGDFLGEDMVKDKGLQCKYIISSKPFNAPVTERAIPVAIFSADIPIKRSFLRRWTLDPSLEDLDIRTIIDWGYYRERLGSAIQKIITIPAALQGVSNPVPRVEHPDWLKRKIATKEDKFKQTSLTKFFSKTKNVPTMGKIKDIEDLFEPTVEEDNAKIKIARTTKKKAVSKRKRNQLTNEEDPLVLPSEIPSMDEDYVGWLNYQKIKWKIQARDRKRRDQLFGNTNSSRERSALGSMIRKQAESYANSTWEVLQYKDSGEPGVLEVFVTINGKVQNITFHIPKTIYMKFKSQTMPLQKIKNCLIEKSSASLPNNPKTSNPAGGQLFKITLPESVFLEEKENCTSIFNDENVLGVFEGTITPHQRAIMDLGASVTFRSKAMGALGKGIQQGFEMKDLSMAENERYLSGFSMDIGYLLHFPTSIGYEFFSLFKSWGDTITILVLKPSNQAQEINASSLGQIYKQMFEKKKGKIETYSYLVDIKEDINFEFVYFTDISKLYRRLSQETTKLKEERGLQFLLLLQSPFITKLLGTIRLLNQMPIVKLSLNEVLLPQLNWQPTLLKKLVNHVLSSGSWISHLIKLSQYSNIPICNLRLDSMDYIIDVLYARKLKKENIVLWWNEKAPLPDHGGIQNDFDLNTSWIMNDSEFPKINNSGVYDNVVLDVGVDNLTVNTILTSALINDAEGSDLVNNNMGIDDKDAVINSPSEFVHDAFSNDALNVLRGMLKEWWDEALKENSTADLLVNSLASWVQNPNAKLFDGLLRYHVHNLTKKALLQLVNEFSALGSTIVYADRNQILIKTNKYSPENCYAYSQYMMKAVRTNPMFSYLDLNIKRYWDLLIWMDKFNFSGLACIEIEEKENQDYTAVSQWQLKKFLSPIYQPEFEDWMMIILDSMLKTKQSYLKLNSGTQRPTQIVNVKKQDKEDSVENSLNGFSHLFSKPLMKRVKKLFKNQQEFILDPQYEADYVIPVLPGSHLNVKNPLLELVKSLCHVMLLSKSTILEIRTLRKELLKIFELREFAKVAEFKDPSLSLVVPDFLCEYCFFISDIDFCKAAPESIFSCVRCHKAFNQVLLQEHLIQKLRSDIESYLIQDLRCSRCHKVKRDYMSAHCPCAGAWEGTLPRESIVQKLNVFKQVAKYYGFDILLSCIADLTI
T1 sequence (P24482 whole entry, chain 2 of 4): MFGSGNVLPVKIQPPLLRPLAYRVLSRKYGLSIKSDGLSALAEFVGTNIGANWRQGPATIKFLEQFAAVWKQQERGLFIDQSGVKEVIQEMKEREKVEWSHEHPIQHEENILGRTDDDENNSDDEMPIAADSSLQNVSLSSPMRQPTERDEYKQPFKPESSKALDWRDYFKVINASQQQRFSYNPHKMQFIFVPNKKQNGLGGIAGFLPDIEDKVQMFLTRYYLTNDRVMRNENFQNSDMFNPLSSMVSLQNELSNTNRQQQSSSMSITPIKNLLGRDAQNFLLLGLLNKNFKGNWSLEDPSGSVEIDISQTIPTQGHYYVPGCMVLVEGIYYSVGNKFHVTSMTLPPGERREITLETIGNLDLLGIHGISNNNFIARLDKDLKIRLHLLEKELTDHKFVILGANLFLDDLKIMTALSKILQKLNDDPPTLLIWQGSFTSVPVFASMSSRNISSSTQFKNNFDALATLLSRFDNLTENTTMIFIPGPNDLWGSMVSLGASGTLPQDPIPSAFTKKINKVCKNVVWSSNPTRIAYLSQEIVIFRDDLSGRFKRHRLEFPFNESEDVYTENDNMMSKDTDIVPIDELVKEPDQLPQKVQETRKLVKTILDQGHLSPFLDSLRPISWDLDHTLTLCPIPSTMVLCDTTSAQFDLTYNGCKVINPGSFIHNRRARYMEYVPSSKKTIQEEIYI
T1 sequence (P27344 whole entry, chain 3 of 4): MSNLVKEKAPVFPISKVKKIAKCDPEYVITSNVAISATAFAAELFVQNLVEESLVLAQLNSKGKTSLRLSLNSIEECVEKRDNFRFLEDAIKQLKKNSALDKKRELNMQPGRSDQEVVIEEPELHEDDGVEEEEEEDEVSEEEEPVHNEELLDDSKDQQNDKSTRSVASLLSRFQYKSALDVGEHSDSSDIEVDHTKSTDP
T1 sequence (Q04603 whole entry, chain 4 of 4): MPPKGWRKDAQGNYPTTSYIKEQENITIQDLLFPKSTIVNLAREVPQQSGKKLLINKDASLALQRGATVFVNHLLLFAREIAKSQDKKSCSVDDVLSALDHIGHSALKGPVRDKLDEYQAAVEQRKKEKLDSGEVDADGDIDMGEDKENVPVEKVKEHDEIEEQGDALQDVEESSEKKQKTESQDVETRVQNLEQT

On to “DNA polymerase epsilon (Pol ε) comprising Pol2, Dpb2, Dpb3 and Dpb4 subunits, P21951 1-2222; P24482 1-689; P27344 1-201; Q04603 1-196”, for which the band intensity compared to Psf1 (relative to Psf1) in experiment [1] turned out to be 0.96; in experiment [2], 0.31.

B1: GINS complex (Psf1, Psf2, Psf3, Halotag-Sld5), wild type (complex, S. cerevisiae)
chain 1: MYGDLGNKLVLEAKRTKQLYARSNQDVNLPMYHEDIIRNILKEVSNLRKNTEYLKEQQQLGMLDDKVAKCQYFVTLLCMERNKRCLLAYQRLRTDILDSMAWNNNGLDLMSSITFSQQDTNNLSHQEQEYLKEYCDLITDLKSGDLVDIDLSGSLVPPSDVFIDVRVLKDAGEIQTEYGVFNLIKDSQFFVRQSDVERLIQQGYLQKI
chain 2: MSLPAHLQQTFSPEEIQFIVENEPIKIFPRITTRQKIRGDDRGTGNHTRWQLITTDDKALNNMVAMRSTEVVLWIALLLKQQSKCSIVAPQWLTTKELDRKIQYEKTHPDRFSELPWNWLVLARILFNKAKDDFHDPIHELRGKIQDLREIRQIKVLKGLKYLNESHLQLDNLSLLEINELRPFITEIMDKLREIHTASLTAGTENDEEEFNI
chain 3: MGYYDIDDVLADGTEFPCKFQYDIPGLGYLENNPGRPITKNTKLSLPLWLARILAIVGGDEALVDEEPVPFVELLPPDMFSTKVMNAIKTDPVALDLHSINSHFFSLAIKWIMLFSEKELANVVSELLLQRAQELNHHASSLSIDLNADSTGKNSANTNIATSTFLLKLEEMEKEIYKKSHESYKDTKRWMFKK
chain 4: MDINIDDILAELDKETTAVDSTKITQGSSSTTHRDANTIVGSSLDLNDKTQIYVSPQQDFSDLMKSWKNERCSPELLPYPHQLMKRLLNRISMQSQLIENISMGFLDMQNASNANPPMPNESKLPLLCMETELERLKFVIRSYIRCRLSKIDKFSLYLRQLNEDENSLISLTDLLSKDEIKYHDTHSLIWLKLVNDSILKYMPEELQAINDTEGSVNMIDEPDWNKFVFIHVNGPPDGKWNEDPLLQENEFGKPCYTVTIPDLKEEVELTIGSIYVMRYEVIRDLLRDDKVALI
notes: Psf1 subunit of GINS, S. cerevisiae; Psf2 subunit of GINS, S. cerevisiae; Psf3 subunit of GINS, S. cerevisiae; Sld5 subunit of GINS, S. cerevisiae; also called GINS_(Psf1); WT; source: purified as described previously [40]; copies: + + +
As for B1, the binding result in experiment [3] is “binds”.

The values above are taken from PMC7762974, “Recombination and Pol ζ Rescue Defective DNA Replication upon Impaired CMG Helicase—Pol ε Interaction” (International Journal of Molecular Sciences, 2020).
